{"source": "paper PMC6152312", "about": "“Structural Insight into the Recognition of r(UAG) by Musashi-1 RBD2, and Construction of a Model of Musashi-1 RBD1-2 Bound to the Minimum Target RNA”", "biological_target": "Msi1(109-200) (RBD2+) (mouse, UniProt Q61474 109-200)", "sequence (Q61474 109-200)": "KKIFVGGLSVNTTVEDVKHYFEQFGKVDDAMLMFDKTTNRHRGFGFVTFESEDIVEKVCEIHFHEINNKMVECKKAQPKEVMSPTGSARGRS", "test": "NMR titration (15N-1H HSQC); 1:1 stoichiometry, slow exchange; 20 mM MES pH 6.0, 100 mM NaCl, 1 mM DTT, 5% D2O, 298 K (NMR sample; titration at 80 uM protein)", "settings": "protein: recombinant; tags: N-terminal His6 cleaved by thrombin; extra GSHM at N-terminus; single strand"}
{"binder": "GUAGU (ssRNA)", "note": "[r(GUAGU)]", "values": [{"measurement": "binding result", "result": "binds"}]}
